In a protein production outcome set (Wang et al. 2014):

Assay: label from the status in PepcDB records

Sequence | protein production
MSSVPSAGQVRRRRVFYIPGYDPIHPRRYRELYRKESAEQARISGYSVTLKPKTTKGPYGWHVRSEQDGAEVAADVEVLVWSDIVRGSMSNTIPATYAQLARTAWTYIASGVLWRLMRLRKGPVIAALYPVGMLLAQLFAALFLVWLGWRLGGLTGWPLAALAGMGVGAGAGVYLLRWFRSKDGTFFAYYLMHDYAYSARWRGANPPELEARIGDFAERIAGALASDADEVLVVGHSSGAHVGVSVLADLIRAGRVPADGPALGFLTLGQVVPMVSFLPEAQRLRADLHYLCTRDELAWVDVSAPGDGCAFALCDPVSVSGVAPATGKRWPLVLSAAFTKTLSPARWAELRWRFFRLHFQYLCAFDQVGDYDYFRITAGPQTLAARYRDRAPSKSRIERAVSKYTDMGAS | failed
MSSWRPAVRTDTGWPLIRRTARCHMLRNPKNAGWCRSSAATASWRSCTVPRASAWPTSRTAVPRPMVGYQCGQVFRACCVKSQETGDLDVGGLQETDKIIEVEEEQEDPYLNDRCRGGGPCKQQCRDTGDEVVCSCFVGYQLLSDGVSCEDVNECITGSHSCRLGESCINTVGSFRCQRDSSCGTGYELTEDNSCKDIDECESGIHNCLPDFICQNTLGSFRCRPKLQCKSGFIQDALGNCIDINECLSISAPCPIGHTCINTEGSYTCQKNVPNCGRGYHLNEEGTRCVDVDECAPPAEPCGKGHRCVNSPGSFRCECKTGYYFDGISRMCVDVNECQRYPGRLCGHKCENTLGSYLCSCSVGFRLSVDGRSCEDINECSSSPCSQECANVYGSYQCYCRRGYQLSDVDGVTCEDIDECALPTGGHICSYRCINIPGSFQCSCPSSGYRLAPNGRNCQDIDECVTGIHNCSINETCFNIQGGFRCLAFECPENYRRSAATLQQEKTDTVRCIKSCRPNDVTCVFDPVHTISHTVISLPTFREFTRPEEIIFLRAITPPHPASQANIIFDITEGNLRDSFDIIKRYMDGMTVGVVRQVRPIVGPFHAVLKLEMNYVVGGVVSHRNVVNVHIFVSEYWF | failed
MSTDFDRIYLNQSKFSGRFRIADSGLGWKISTSGGSAANQARKPFLLPATELSTVQWSRGCRGYDLKINTKNQGVIQLDGFSQDDYNLIKNDFHRRFNIQVEQREHSLRGWNWGKTDLARNEMVFALNGKPTFEIPYARINNTNLTSKNEVGIEFNIQDEEYQPAGDE | not failed
MSTDRETVRSYDAVAAEYAAEAAVMPEWVATEIDVFVTELSGSGRVLEIGSGGGRDALELEKRGMSVRRTDISKGFVELLRESGFEADLLDPLTDDLADPQRPSMPYDGIWACACLIHVARGDFGTVLGRLAEATRSGGRLHVSVREGDGEDLSTHGSAAAPRRYVETYWREPALRSALTDAGWIVNDVRRYVGRPHDRWLSVRASRA | failed
MSTETAEKPGETTPESHVFEADVARLLHMMVHSVYSDKDVFLRELVSNAADACEKLRYEAITTPGLLTSDPDPRIQLRLDADNRQLILEDNGIGMSRAELIEALGTIARSGTRAFMERIEASKADAAKTGEDAQLIGQFGVGFYSCFMVADKVDVVTRRAGETQAWIWSSDGKGSYSISEIDAESAPARGTRITLHLMEDAKDYATRARVERIVKQQSGHVPVAITLVEKPGDEPTRITEGTALWTRPKSEISSEDYADFYRGIAGQYDEPALTVHFRAEGRHEYTALAFVPGTPPFDLFDPDRKGRIKLYVKRVFITDDAELLPRYLRFVRGLVDTADLPLNVSREMIQESPILSAIRKGVTNRILTSVEKLAQNEPETYKTLWENFGAVLKEGLYEDFERRSQLLGLTRFRTTTSGDDQRSLADYLKDLKPEQDSIYYLAGSNIEQLRASPQLEGFRARGIEVLLLSDQIDSFWVMNAPEFEGKTFKSVSQGAADLAKFAKADAGADSDQDSNDQAKADIAGFLALAKEQLKDQVADVRASDRLTESPVCLVAPESGYDRQLEKILAGAGQLASTSKPVLELNADHVLVKAMAGAQHTPALQNDAIHLLYDQARILDGEKPADARAFAERMGRLLEKALRA | failed
MSTFQQPDPRDRPARLTVGVVGAGRVGPALAASLQLAGHRPVAVSGVSDTSVRRAAAMLPDVPLVTPAQVLERADLVLLTVPDDALPGLVEGLAETGAVRPGQLLVHTSGRYGTKVLDPARSAGALPLALHPAMTFTGTAVDVQRLAGCSFGVTAPDELRLAAEALVIEMGGEPEWIAEENRPLYHAALALGANHLVTLVAESMELLRTAGVEAPDHMLGPLLGAALDNALRSGDGALTGPVARGDAGTVAAHVAELRKHAPGTVPGYLAMARATADRALAHGLLKPELAEDLLGVLANGTEGDAG | failed
MSTIEERTPGAVATEPVGHEGARVSINEKNVWSLGAGPAAFALLAMIVLMIASGVFFAQSINTLENDGGGTLAVTGLIASIVVFTVALVVTITSVKVVSPGHTLTVQFFGRYIGTLRRTGLSFVPPLSVTKKVSVRVRNFETNEAKVNDYNGNPINIAAIIVWQVADTAQASFSVEDFEEFLHQQAESALRHVATQHPYDSPVDGRVSLRGATDEVSEELADEVAQRAAVAGLEIVEARISSLSYAPEIAQAMLQRQQASAIVDAREKIVEGAVTMVETALDQLEQREIVDLDPERRAAMVSNLLVVLCSDTNAQPIVNAGSLYQ | failed
MSTKLYYIYDPMCSWCWGYRPVWDLLQQHLPKSIDVEYVAGGLAPDSDSAMPIDQQQMIQNHWRTIEQKLGTKFNYDFWRENTARRSTYNACRAAIAAHKQSCQKAMIDAIQQAYYLRALNPSDVDVLVSVAKELSEQTSPTLDVAQFIVDINSSETNKELAKQVTLARELTQQGFPSLVLDVDGVIQQIPLDYSDYKTTLAYIIKKTS | failed
MSTKTMKEKAVELLQKCEVVTLASVNKEGYPRPVPMSKIAAEGISTIWMSTGADSLKTIDFLSNPKAGLCFQEKGDSVALMGEVEVVTDEKLKQELWQDWFIEHFPGGPTDPGYVLLKFTANHATYWIEGTFIHKKLD | not failed
MSTLQTPGATLYSFRRCPYAMRARLALRYAGVPMRIVEVSLKAKPAEMLALSAKGTVPVLALEDRVIDESLEIMHWALAQHDPEDWRLTADPTAQAQMAALIAENDQVFKVHLNRYKYAERYPEAPMEHYRAQGEAFLARLDSLLQQRRYLLAEHPSLADMALLPFVRQFAHVDREWFAQTPYRSLQEWLQERLASELFLAVMAKQ | failed
MSTPTAADRAKALERKNEGNVFVKEKHFLKAIEKYTEAIDLDSTQSIYFSNRAFAHFKVDNFQSALNDCDEAIKLDPKNIKAYHRRALSCMALLEFKKARKDLNVLLKAKPNDPAATKALLTCDRFIREERFRKAIGGAENEAKISLCQTLNLSSFDANADLANYEGPKLEFEQLYDDKNAFKGAKIKNMSQEFISKMVNDLFLKGKYLPKKYVAAIISHADTLFRQEPSMVELENNSTPDVKISVCGDTHGQFYDVLNLFRKFGKVGPKHTYLFNGDFVDRGSWSCEVALLFYCLKILHPNNFFLNRGNHESDNMNKIYGFEDECKYKYSQRIFNMFAQSFESLPLATLINNDYLVMHGGLPSDPSATLSDFKNIDRFAQPPRDGAFMELLWADPQEANGMGPSQRGLGHAFGPDITDRFLRNNKLRKIFRSHELRMGGVQFEQKGKLMTVFSAPNYCDSQGNLGGVIHVVPGHGILQAGRNDDQNLIIETFEAVEHPDIKPMAYSNGGFGL | not failed
MSTQDERQINTEYAVSLLEQLKLFYEQQLFTDIVLIVEGTEFPCHKMVLATCSSYFRAMFMSGLSESKQTHVHLRNVDAATLQIIITYAYTGNLAMNDSTVEQLYETACFLQVEDVLQRCREYLIKKINAENCVRLLSFADLFSCEELKQSAKRMVEHKFTAVYHQVAFMQLSHDLLIDIFSSDNLNVEKEETVREAAMLWLEYNTESRSQYLSSVLSQIRIDALSEVTQRAWFQGLPPNDKSVVVQGLYKSMPKFFKPRLGMTKEEMMIFIEASSENPCSLYSSVCYSPQAEKVYKLCSPPADLHKVGTVVTPDNDIYIAGGQVPLEKHKNKSQ | failed
MSTQSEAILEENLLKQLVSLGYEKVLIRDEAELLANLKAQLERHNKITLDDMEFSRILNHLNKGNVFEKAKILRDKFALTREDGTTKYIEFLDTERWCQNLFQVTHQVTIEGSYKNRYDVTILINGLPLVQIELKRRGLELKEAFNQINRYQRHSYGANSALFHYVQIFVISNGVNTKYYANNRNQSFKQTFFWADKENKNITNLNEFTDLFLEPCHISKMICKYVVLAEATKTLMILRPYQYHATEAIIDRVVNTNKNGYIWHTTGSGKTLTSFKTAQILMKLPNVHKVVFVVDRKDLDYQTTKEFNSFSQGSVDGTDNTASLVRQFSDDTRLIVTTIQKLNTAINKQRYLEKMKNLRDKRIVFIFDECHRSQFGDTHRNITKFFNNYQMIGFTGTPIFADNATGNKFGKRTTKELFDECLHKYVITDAIADENVLKFSVEYIGRYKEREGSQNNLDIEVEDIDTKELLESPERLEKIVDYIIAHHDRKTHSKEFTAMMCVSSVDVLTKYYELFRSKQHGLKIATIFSYSTNEDDKDANGLDSLEESDGAHVDEEHINMHSRDKLEEYIAHYNTMFGTNFTTKDSQSFYNYYNDISKRVKNQEVDILLVVNMFLTGFDSKTLNTLYVDKNLKYHGLIQAFSRTNRILNEKKSQGNILCFRNLKKATDAAIALFSNKNAKEIILMKSYEEYVEKFIEALKKLKEIAPTIDSVDSLYDEESKLEFIKAFRELMRIQNILGSFADFSFADLGIAEQEFEEYKSKYLDIHDTIKREGKEKVSILEDVDFELELIHKDEINVTYILKLLAQLKDASEQEHQTQRQNIINIINGNAQLRSKRELIERFIDAHLMSLEDIDMVDGAFEKFWNEEKLKAFDALCEEENLNKEKVKKVVDTYLYDERPPLSDDIANTLNIKPKLLERRKVVPRVLDKIMTFVDRFYT | failed
MSTRSMSAPANATVADVAAGDAIRSLDPSIRAVWAIKMAAFSMFLFLPALFYDLTHLFSPDSWLPFGVLSGTVLVGGVLYCVAWPRLRYRAWGFVLRPEELYMEHGVLQHVRTIVPLRRIQHVDVSQDLIEREFALGRLVVHTAGSRSSDVVIPGLPLSEAETIRDKIKRFILEDPLTEEPV | failed
MSTTALVGTGHRPTIVLVGHGMVGQRFLEALAERGLTATHRVVVLCEEPRPAYDRVQLTSYFSGTTPDELSMTDAEFITEHGIDLRLGDPAETVDREARTVTARSGLVIAYDTLVLATGSYPFVPPVPGKDAEGCFVYRTIEDLLAIEAYAKSRATTGAVVGGGLLGLEAAGALKGLGLTSHIVEFAPRLMPVQVDAGGGAALLRTIEDMGLTVHTGTGTQEIVTGDDGAVTGMKLSDGSELATDLVVFSAGVRPRDQLARDCGLPVGERGGIAVDAQCRTEDPHVFAIGECALAADGRVYGLVAPGYEMAETAAATIASADSSFTGADLSTKLKLLGVDVASFGDAHGATAGCLDVVYADSRSGTYKKLVIGRDGELLGGILVGDADAYGTLRALTGSVPPVSPEQLVLPAGGGGGVALGPSALPDSAVICSCHNVTKGAIRGAVTEHSCTTLPEVKKCTKAGTGCGSCVKVLGQLVNDELTASGVEVDHGLCGCFTQTREELYEIVLALRITSYRSLLDRYGREGARGGDGCEVCKPTVGSIIASLAPTIGANGYVLDGEQSALQDTNDHFLANLQKNGSYSIVPRIPGGEITPEKLIVIGEVARDFGLYTKITGGQRIDLFGARVEQLPLIWTRLVDAGFESGHAYGKSLRTVKSCVGQSWCRYGVQDSVRMAIDLELRYRGLRSPHKLKSAVSGCARECAEAQSKDFGIIATANGWNLYVGGNGGATPRHADLLAQDLSDAELVRLIDRFLMFYIRTADRLERTSVWLERIPGGLDHIRDVVVHDSLGICEELESLMTAHVANYRDEWTETINDPEKLARFVSFVNAPDTPDPVVGFVPERDQIKPDLPLLTIGHRPLEGSAQR | failed
MSTTGDSAPQISGTAESAKECADWQALLERIPYAQHLGLEVQRGDVGVLVHLPCREALIGNFMLPALHGGVLGALIELTARVAAQSQDAETRCPRILDSHINYLRSAKARSTFARADIIRQGRRTSLVQVTCWQGDDKKPIATGQVQLLLPTMAAQQEDRHGH | failed
